Reference: publication PMC12126490, “The HP1 box of KAP1 organizes HP1α for silencing of endogenous retroviral elements in embryonic stem cells” (Nature Communications, 2025)

How the values were obtained:
[1] = system: endogenous retroelements in KAP1 cKO ESCs; assay: ATAC-seq chromatin accessibility; format: cell-based, mouse; conditions: exogenous expression in KAP1 cKO ESCs, 2 μg/mL doxycycline, 2 μM 4-OHT 48 h
Experimental: ESCs were maintained under standard conditions on gelatin-coated plates at 37 °C at 5% CO2 in Knockout DMEM (Thermo Fisher) supplemented with NEAA, GlutaMAX, penicillin/streptomycin (Thermo Fisher), 15% ESC-screened fetal bovine serum (Hyclone), 0.1 mM 2-mercaptoethanol (Fisher), and leukemia-inhibitory factor (LIF). Generation of KAP1 cKO ESCs has been described previously. The piggybac transposon system was used to stably integrate transgenic Flag-tagged WT or V488E mutant KAP1 under control of an rtTA promoter (Systems Biosciences, PB-TRE-EGFP-EF1a-rtTA) into the inducible KAP1 cKO ESCs. Exogenous expression of WT or V488E mutant KAP1 was induced with 2 μg/mL doxycycline for 48 h and maintained in doxycycline prior to endogenous KAP1 deletion. KAP1 deletion was induced with 2 μM 4-OHT (Sigma) treatment for 48 h. […]
The modified ATAC-sequencing protocol Omni-ATAC was performed. […] Number of further PCR cycles required was determined using KAPA Library Quantification Kit (KK4854). […]
Quality of datasets was assessed using the FastQC tool. Raw reads were adapter and quality trimmed using Trimgalore. Trimmed reads were aligned to the mouse reference genome (mm10) with Bowtie2. Multimapping reads were randomly assigned. Optical duplicate reads were filtered using Picard (https://broadinstitute.github.io/picard/). Reads which mapped to the mitochondrial genome were removed with Samtools. […]

FL HP1α = assay: mass photometry, mixture of FL HP1α and FL KAP1 (Fig. 6g)
Experimental: For MP assays shown in Fig. 6g–I and Supplementary Fig. 12, FL KAP1 and FL HP1α were expressed and purified as described[38],[67]. MP measurements were performed on a Refeyn OneMP instrument (Refeyn Ltd). The calibration was done with a native marker protein standard mix (NativeMark Unstained Protein Standard, Thermo Scientific), which contains proteins ranging from 20 to 1200 kDa. Coverslips (24 × 50 mm, No. 1.5H, Marienfeld) were cleaned by sequential sonication in Milli-Q water, isopropanol and Milli-Q-water, followed by drying with nitrogen. For each acquisition 2 μL of protein solution was applied to 18 μL of buffer (10 mM HEPES pH 7.5, 150 mM NaCl) in a gasket (CultureWellTM Reusable Gasket, Grace Bio-Labs) on a coverslip. To capture the movie, 400 nM HP1α was diluted 10× and 200 nM KAP1 was diluted 10× for a final concentration of 40 nM and 20 nM, respectively. The final molar ratios of HP1α:KAP1 were 1:0, 1:1 and 2:1. Movies were recorded at 999 Hz with an exposure time of 0.95 ms by using the AcquireMP software (Refeyn Ltd). All mass photometry movies were processed and analysed in the DiscoverMP software (Refeyn Ltd).

B1: FL KAP1: full-length KAP1 (KRAB-associated protein 1, TRIM28, TIF1β) (protein)
chain: MAASAAAASAAAASAASGSPGPGEGSAGGEKRSTAPSAAASASASAAASSPAGGGAEALELLEHCGVCRERLRPEREPRLLPCLHSACSACLGPAAPAAANSSGDGGAAGDGTVVDCPVCKQQCFSKDIVENYFMRDSGSKAATDAQDANQCCTSCEDNAPATSYCVECSEPLCETCVEAHQRVKYTKDHTVRSTGPAKSRDGERTVYCNVHKHEPLVLFCESCDTLTCRDCQLNAHKDHQYQFLEDAVRNQRKLLASLVKRLGDKHATLQKSTKEVRSSIRQVSDVQKRVQVDVKMAILQIMKELNKRGRVLVNDAQKVTEGQQERLERQHWTMTKIQKHQEHILRFASWALESDNNTALLLSKKLIYFQLHRALKMIVDPVEPHGEMKFQWDLNAWTKSAEAFGKIVAERPGTNSTGPAPMAPPRAPGPLSKQGSGSSQPMEVQEGYGFGSGDDPYSSAEPHVSGVKRSRSGEGEVSGLMRKVPRVSLERLDLDLTADSQPPVFKVFPGSTTEDYNLIVIERGAAAAATGQPGTAPAGTPGAPPLAGMAIVKEEETEAAIGAPPTATEGPETKPVLMALAEGPGAEGPRLASPSGSTSSGLEVVAPEGTSAPGGGPGTLDDSATICRVCQKPGDLVMCNQCEFCFHLDCHLPALQDVPGEEWSCSLCHVLPDLKEEDGSLSLDGADSTGVVAKLSPANQRKCERVLLALFCHEPCRPLHQLATDSTFSLDQPGGTLDLTLIRARLQEKLSPPYSSPQEFAQDVGRMFKQFNKLTEDKADVQSIIGLQRFFETRMNEAFGDTKFSAVLVEPPPMSLPGAGLSSQELSGGPGDGP
restoration of closed chromatin at IAPEz, MERVK10C and ETn [1]: able to partially restore closed chromatin at IAPEz, MERVK10C and ETn elements | effect on oligomerization of HP1α (FL HP1α): Oligomerization of HP1α was further increased
